System: (His)6PemI

PemK(His)6
cleavage of mazG mRNA (native PAGE of digestion products): the addition of PemI inhibited the cleavage of mazG mRNA in a dose-dependent manner
